Here are results for six molecules from US6812377B2, “Genetic engineering of syringyl-enriched lignin in plants” (Board of Control of Michigan Technological University, priority 2000, dated 2004).

Series [1] deals with T1, recombinant PtCAD protein (Populus tremuloides, UniProt Q9M632). Description: Kinetic properties of the recombinant PtCAD protein (HPLC-UV/MS). It is filed as biochemical. Conditions: substrate of PtCAD; relative, coniferaldehyde = 100. On the procedure: (§1) To characterize the enzyme pH optima, the substrate and recombinant PtCAD or PtSAD protein concentrations described above were used in sodium phosphate buffers, pH 5 to 8.5. […] For inhibition kinetics, the PtCAD-mediated reduction of sinapaldehyde (1 to 200 μM) was assayed in the presence of 1 to 5 μM coniferaldehyde, and the PtSAD-catalyzed reduction of coniferaldehyde (1 to 200 μM) was assayed in the presence of 1 to 5 μM sinapaldehyde. All reactions were terminated by the addition of 10 μL of 6 N HCI (to bring the pH to 2) and 500 ng of internal standard o-coumaric acid and analyzed by HPLC-UV/MS. An aliquot of 100 μL of reaction mixture was injected directly onto a Supelcosil LC-ABZ column (15 cm×4.6 mm×5 μm; Supelco, Bellefonte, Pa.) with automatic sample injection and separated isocratically with a Hewlett-Packard (HP) 1100 liquid chromatography system at 40° C. and a flow rate of 0.25 mL/min. […] The reaction products were identified and confirmed by comparing the ion fragmentation patterns of the product and the authentic standard in MS scanning mode at 70 V. The product quantity and Km, Vmax, kcat, and apparent inhibition constant (Ki) values (means±SE) were determined as described (Osakabe et al., 1999; Li et al., 2000). The results of the inhibition kinetics for both the CAD enzyme (i.e. Table 2) and the SAD enzyme (i.e., Table 3) using a variety of substrates are illustrated below.

For series [2], the target named is recombinant PtSAD protein (Populus tremuloides, UniProt Q94G59). The experiment in a line: Kinetic properties of the recombinant PtSAD protein (HPLC-UV/MS). It is filed as biochemical. The following applies: substrate of PtSAD; relative, sinapaldehyde = 100. On the procedure: as §1
Series [3] relates to PtSAD recombinant protein. The experiment in a line: SAD enzyme activity assay, single and mixed substrates (HPLC-MS). It is filed as biochemical, Populus tremuloides. As for the experimental part:
After 10 min at 30° C., the reaction was terminated and extracted with 0.5 ml ethyl acetate. The extraction was repeated 4 times and the combined ethyl acetate was evaporated and dissolved in the HPLC mobile phase for LC-MS identification and quantitation of the reaction products as we did before (Osakabe et al., 1999; Li et al. 2000). […] The SAD reactions with mixed substrates, sinapaldehyde and coniferyl aldehyde, were therefore conducted at the optimal pH 7.0 under above-described conditions. […] To characterize the enzyme pH optima, the substrate and recombinant PtCAD or PtSAD protein concentrations described above were used in sodium phosphate buffers, pH 5 to 8.5. All reactions were for 10 minutes at 30° C. An aliquot of 100 μL of reaction mixture was injected directly onto a Supelcosil LC-ABZ column (15 cm×4.6 mm×5 μm; Supelco, Bellefonte, Pa.) with automatic sample injection and separated isocratically with a Hewlett-Packard (HP) 1100 liquid chromatography system at 40° C. and a flow rate of 0.25 mL/min. […] The reaction products were identified and confirmed by comparing the ion fragmentation patterns of the product and the authentic standard in MS scanning mode at 70 V. The product quantity and Km, Vmax, kcat, and apparent inhibition constant (Ki) values (means±SE) were determined as described (Osakabe et al., 1999; Li et al., 2000). The results of the inhibition kinetics for both the CAD enzyme (i.e. Table 2) and the SAD enzyme (i.e., Table 3) using a variety of substrates are illustrated below.

Series [4] concerns the target T1, recombinant PtCAD protein. The experiment in a line: PtCAD enzyme activity with a mixture of coniferaldehyde and sinapaldehyde (HPLC-MS). It is filed as biochemical. An excerpt: A guaiacyl pathway gene encoding coniferyl alcohol dehydrogenase (CAD, FIG. 1) from Populus tremuloides (GenBank #AF217957) was first cloned. This cDNA was designated as PtCAD (GenBank #AF217957). E. coli-expressed recombinant PtCAD protein was characterized for its catalytic activity with coniferaldehyde and sinapaldehyde. Because monolignol biosynthetic pathway intermediates are present together in lignifying tissues (Osakabe et al., 1999; Li et al. 2000), the PtCAD enzyme activity with a mixture of coniferaldehyde and sinapaldehyde was assayed. As shown in FIG. 5 (a) and (c), the reaction mixture was separated by HPLC after the enzyme reaction. […]
An aliquot of 100 μL of reaction mixture was injected directly onto a Supelcosil LC-ABZ column (15 cm×4.6 mm×5 μm; Supelco, Bellefonte, Pa.) with automatic sample injection and separated isocratically with a Hewlett-Packard (HP) 1100 liquid chromatography system at 40° C. and a flow rate of 0.25 mL/min. […] The reaction products were identified and confirmed by comparing the ion fragmentation patterns of the product and the authentic standard in MS scanning mode at 70 V. The product quantity and Km, Vmax, kcat, and apparent inhibition constant (Ki) values (means±SE) were determined as described (Osakabe et al., 1999; Li et al., 2000). […]

Substrate in series [5]: COc1cc(/C=C/C=O)cc(O)c1O
Description: Kinetic properties of the recombinant PtSAD protein (HPLC-UV/MS). It is filed as biochemical, Populus tremuloides. The following applies: other: substrate of PtSAD, pH 7.0, 4 min, 30° C., NADPH, means of three independent assays.

Substrate in series [6]: COc1cc(/C=C/C=O)cc(OC)c1O
The series is described as above. It is filed as biochemical, Populus tremuloides. Conditions: other: substrate of PtSAD, pH 7.0, 4 min, 30° C., NADPH, means of three independent assays.

Substrate in series [7]: COc1cc(/C=C/C=O)ccc1O
The series is described as above. It is filed as biochemical, Populus tremuloides. Conditions: other: substrate of PtSAD, pH 7.0, 4 min, 30° C., NADPH, means of three independent assays.

Substrate in series [8]: O=C/C=C/c1ccc(O)c(O)c1
The description is as above. It is filed as biochemical, Populus tremuloides. Conditions: other: substrate of PtSAD, pH 7.0, 4 min, 30° C., NADPH, means of three independent assays.

Substrate in series [9]: O=C/C=C/c1ccc(O)cc1
The series is described as above. It is filed as biochemical, Populus tremuloides. Conditions: other: substrate of PtSAD, pH 7.0, 4 min, 30° C., NADPH, means of three independent assays.

Substrate in series [10]: COc1cc(/C=C/C=O)cc(O)c1O
The experiment in a line: Kinetic properties of the recombinant PtCAD protein (HPLC-UV/MS). It is filed as biochemical, Populus tremuloides. Conditions: other: substrate of PtCAD, pH 8.0, 4 min, 30° C., NADPH, means of three independent assays. As for the experimental part:
as §1

Substrate in series [11]: COc1cc(/C=C/C=O)cc(OC)c1O
The description is as above. Conditions: other: substrate of PtCAD, pH 8.0, 4 min, 30° C., NADPH, means of three independent assays. It is filed as biochemical, Populus tremuloides. On the procedure:
as §1

Substrate in series [12]: COc1cc(/C=C/C=O)ccc1O
The description is as above. It is filed as biochemical, Populus tremuloides. The following applies: other: substrate of PtCAD, pH 8.0, 4 min, 30° C., NADPH, means of three independent assays. On the procedure: as §1

Substrate in series [13]: O=C/C=C/c1ccc(O)c(O)c1
The description is as above. It is filed as biochemical, Populus tremuloides. Conditions: other: substrate of PtCAD, pH 8.0, 4 min, 30° C., NADPH, means of three independent assays. On the procedure:
as §1

Substrate in series [14]: O=C/C=C/c1ccc(O)cc1
The series is described as above. It is filed as biochemical, Populus tremuloides. Conditions: other: substrate of PtCAD, pH 8.0, 4 min, 30° C., NADPH, means of three independent assays. On the procedure: as §1

For the molecule `COc1cc(/C=C/C=O)cc(O)c1O` [5-Hydroxyconiferaldehyde], the Vmax/Km worked out at 10.6% in series [1] and 15.5% in [2].
With `COc1cc(/C=C/C=O)cc(OC)c1O` [Sinapaldehyde], the Vmax/Km was 12.0% in [1] and 100% in [2]. In addition, the “reaction of PtSAD with the substrate in a mixture” value in [3] (mixture of coniferaldehyde and sinapaldehyde, pH 7.0) is “sinapyl alcohol is the exclusive product”. For the same molecule, in series [3] (ratio of specific activities), the “catalytic efficiency of PtSAD with sinapaldehyde versus coniferaldehyde” value is on record as 9 times. In series [4], the “reaction of PtCAD with the substrate in a mixture” value is “no reaction”.
For the molecule `O=C/C=C/c1ccc(O)c(O)c1` [Caffealdehyde], the values for the Vmax/Km in [1] and in [2] were 4.4% and 2.2%, respectively.
For `O=C/C=C/c1ccc(O)cc1` [p-Coumaraldehyde] the same measures were 30.1% and 27.4%.

B1: recombinant PtSAD protein (Populus tremuloides) (protein)
chain: MSKSPEEEHPVKAFGWAARDQSGHLSPFNFSRRATGEEDVRFKVLYCGICHSDLHSIKNDWGFSMYPLVPGHEIVGEVTEVGSKVKKVNVGDKVGVGCLVGACHSCESCANDLENYCPKMILTYASIYHDGTITYGGYSDHMVANERYIIRFPDNMPLDGGAPLLCAGITVYSPLKYFGLDEPGKHIGIVGLGGLGHVAVKFAKAFGSKVTVISTSPSKKEEALKNFGADSFLVSRDQEQMQAAAGTLDGIIDTVSAVHPLLPLFGLLKSHGKLILVGAPEKPLELPAFSLIAGRKIVAGSGIGGMKETQEMIDFAAKHNITADIEVISTDYLNTAIERLAKNDVRYRFVIDVGNTLAATKP
As for B1, the Km in [5] worked out at 36.1 µM; in series [6], 7.4 µM; in series [7] it was 12.7 µM; in series [8], 140.0 µM; in series [9], 15.6 µM. The Vmax in series [5] was 3.8 µmol/min/mg; in series [6] it was 5 µmol/min/mg; in series [7], 2.3 µmol/min/mg; in series [8], 2 µmol/min/mg; in series [9], 2.9 µmol/min/mg. Moreover, the kcat in series [5] was 2.53 s⁻¹; in [6], 3.33 s⁻¹; in series [7], 1.53 s⁻¹; in [8], 1.33 s⁻¹; in [9], 1.93 s⁻¹.

B2: recombinant PtCAD protein (Populus tremuloides) (protein)
chain: MGSLETERKIVGWAATDSTGHLAPYTYSLRDTGPEDVLIKVISCGICHTDIHQIKNDLGMSHYPMVPGHEVVGEVVEVGSDVTKFKAGDVVGVGVIVGSCKNCHPCKSELEQYCNKKIWSYNDVYTDGKPTQGGFAESMVVDQKFVVRIPDGMSPEQAAPLLCAGLTVYSPLKHFGLKQSGLRGGILGLGGVGHMGVKIAKAMGHHVTVISSSDKKREEAMEHLGADEYLVSSDVESMQKAADQLDYIIDTVPVVHPLEPYLSLLKLDGKLILMGVINTPLQFVSPMVMLGRKSITGSFIGSMKETEEMLEFCKEKGLASMIEVIKMDYINTAFERLEKNDVRYRFVVDVAGSKLIP
As for B2, the Km in series [10] is 17.5 µM; in [11] it was 9.1 µM; in [12], 2.3 µM; in [13], 37.0 µM; in series [14] it was 6.2 µM. For the same molecule, the Vmax in series [10] was determined as 0.17 µmol/min/mg; in [11], 0.1 µmol/min/mg; in series [12], 0.21 µmol/min/mg; in [13], 0.15 µmol/min/mg; in [14], 0.17 µmol/min/mg. The kcat in [10] was found to be 0.113 s⁻¹; in series [11], 0.0667 s⁻¹; in [12], 0.14 s⁻¹; in [13] it was 0.1 s⁻¹; in [14], 0.113 s⁻¹.
